Consider two compounds from PMC12175502, “7β-Hydroxysteroid dehydratase Hsh3 eliminates the 7-hydroxy group of the bile salt ursodeoxycholate during degradation by Sphingobium sp. strain Chol11 and other Sphingomonadaceae” (Applied and Environmental Microbiology, 2025).

One series has as its system T1, Hsh2.
T1 construct: tag not reported cut
The series is described as follows: continuous spectrophotometric assay at […] nm. Format: biochemical, Sphingobium sp. Chol11. To be noted: 50 mM MOPS pH 7.8, 30 °C, 25% ethanol; dehydration; substrate range 50 µM to 1 mM.

Series [1] concerns T2, C[C@]12C=CC(=O)C=C1C[C@H](O)[C@@H]1[C@@H]2CC[C@]2(C)C(=O)CC[C@@H]12.
T2 construct: His-tagged, pET28b(+), E. coli Tuner(DE3), Ni-NTA and desalting gel filtration; tag not reported cut; primers read start MEKLICAL and end AHLDGK before vector C-terminal tag
As to the kind of experiment: purified protein. It counts as biochemical, Sphingobium sp. Chol11. To be noted: 50 mM MOPS pH 7.8, 30 °C, 25% ethanol, dehydration, substrate range 50 µM to 1 mM.

As a reminder, the Km is the substrate concentration at which the rate is half of its maximum. Turning to `C[C@]12C=CC(=O)C=C1C[C@@H](O)[C@@H]1[C@@H]2CC[C@]2(C)C(=O)CC[C@@H]12` [XI, 7α-hydroxy-androsta-1,4-diene-3,17-dione], the Km in the series on Hsh2 amounted to 250 ± 50 µM.

What is called kcat is the maximal rate divided by the concentration of active sites. For orientation: kcat/Km means the second-order rate constant that governs catalysis at low substrate concentration. Hsh3 (Nov2c681) (Sphingobium sp.): in series [1], the Km was determined as 1260 ± 450 µM, the kcat is 130 ± 30.1 s⁻¹ and the kcat/Km was determined as 103000 M⁻¹ s⁻¹.
